T1: human CD39 (gene ID 953) (human, UniProt P49961 5-510)
T1 construct: Cell-surface form: transiently or stably transfected HEK cells, PBMCs, AML cell lines; also called native CD39; human CD39 transfected HEK cells
T1 sequence: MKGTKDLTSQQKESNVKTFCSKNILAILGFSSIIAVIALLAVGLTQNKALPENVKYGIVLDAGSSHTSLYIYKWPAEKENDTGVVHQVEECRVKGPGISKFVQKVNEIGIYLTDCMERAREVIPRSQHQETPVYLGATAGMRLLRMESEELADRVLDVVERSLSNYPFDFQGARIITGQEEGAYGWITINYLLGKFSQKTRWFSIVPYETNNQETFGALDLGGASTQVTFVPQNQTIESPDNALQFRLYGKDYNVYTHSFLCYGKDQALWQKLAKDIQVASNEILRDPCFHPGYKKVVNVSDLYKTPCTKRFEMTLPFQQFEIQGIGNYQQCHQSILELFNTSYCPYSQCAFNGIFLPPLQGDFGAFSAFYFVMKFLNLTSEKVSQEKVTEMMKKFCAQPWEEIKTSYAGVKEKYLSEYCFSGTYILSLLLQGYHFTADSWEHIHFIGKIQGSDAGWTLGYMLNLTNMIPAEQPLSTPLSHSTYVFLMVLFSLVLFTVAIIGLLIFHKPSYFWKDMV

T2: mouse CD39 (gene ID 12495) (mouse, UniProt P55772 1-510)
T2 construct: whole, on cells; also called murine CD39; mouse CD39 transfected HEK cells
T2 sequence (looked up): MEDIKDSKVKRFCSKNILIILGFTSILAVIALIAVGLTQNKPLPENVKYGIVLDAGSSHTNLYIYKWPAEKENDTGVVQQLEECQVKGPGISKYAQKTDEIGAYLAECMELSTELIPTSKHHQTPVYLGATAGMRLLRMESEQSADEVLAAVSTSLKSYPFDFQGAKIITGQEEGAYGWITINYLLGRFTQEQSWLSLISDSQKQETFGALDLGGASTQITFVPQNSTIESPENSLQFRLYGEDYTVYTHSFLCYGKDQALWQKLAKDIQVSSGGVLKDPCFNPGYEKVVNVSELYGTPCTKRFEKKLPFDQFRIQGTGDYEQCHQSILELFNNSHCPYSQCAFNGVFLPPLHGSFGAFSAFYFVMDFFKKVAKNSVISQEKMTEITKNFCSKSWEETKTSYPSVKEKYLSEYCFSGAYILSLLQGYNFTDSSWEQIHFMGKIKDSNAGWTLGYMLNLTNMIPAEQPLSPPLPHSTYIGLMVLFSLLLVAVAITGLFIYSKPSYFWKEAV


Assays:
human CD39 (gene ID 953) [1] = target: T1, human CD39 (gene ID 953); experiment: flow cytometry binning on human CD39-expressing cells; competitor: Fam. 2 human IgG hcAb in excess
human CD39 (gene ID 953) [2] = target: T1, human CD39 (gene ID 953); experiment: flow cytometry binning on human CD39-expressing cells; competitor: human IgG hcAb SB24 (Fam. 1) in excess
human CD39 (gene ID 953) [3] = target: T1, human CD39 (gene ID 953); experiment: flow cytometry binning on human CD39-expressing cells; competitor: Fam. 3 human IgG hcAb (SB134) in excess
human CD39 (gene ID 953) [4] = target: T1, human CD39 (gene ID 953); experiment: flow cytometry binning on human CD39-expressing cells; competitor: Fam. 5 human IgG hcAb (SB136) in excess
human CD39 (gene ID 953) [5] = target: T1, human CD39 (gene ID 953); experiment: flow cytometry, rabbit IgG hcAb supernatant on transfected HEK cells
[6] = target: recombinant human CD39 ectodomain with C-terminal His6x tag (human) (UniProt P49961); experiment: BLI (Octet RED96), rabbit IgG hcAb on protein A biosensor, recombinant CD39 ectodomain as analyte at 200 ng/µl
[7] = target: recombinant human CD39 ectodomain with C-terminal His6x tag (human) (UniProt P49961); experiment: BLI (Octet RED96), rabbit IgG hcAb on protein A biosensor, recombinant CD39 ectodomain as analyte
[8] = target: T2, mouse CD39 (gene ID 12495); experiment: Table 1 specificity; sorted by binding to human (h) and/or mouse (m) CD39
[9] = target: T2, mouse CD39 (gene ID 12495); experiment: Table 1 specificity; binding to human (h) and/or mouse (m) CD39
human CD39 (gene ID 953) [10] = target: T1, human CD39 (gene ID 953); experiment: as above

| Molecule | percent inhibition of binding (human CD39 (gene ID 953) [1]) | percent inhibition of binding (human CD39 (gene ID 953) [2]) | percent inhibition of binding (human CD39 (gene ID 953) [3]) | percent inhibition of binding (human CD39 (gene ID 953) [4]) | binding result (human CD39 (gene ID 953) [5]) | koff [6] | koff [7] | binding result [8] | binding result [9] | binding result (human CD39 (gene ID 953) [10]) |
| --- | --- | --- | --- | --- | --- | --- | --- | --- | --- | --- |
| monoclonal antibody against CD39, clone eBioA1 | 8% | 17% | 5% | 75% |  |  |  |  |  |  |
| SB126 rabbit IgG hcAb (Fc fusion, not shown: a dimerising Fc or GST, also called family 2) VHH: QVQLVESGGGLVQAGDSLRLSCAASGRIPVTTTTAWFRQAPGKEREFVAAIRWNSGDAAYADSAKGRFTISRDSAKNTLYLQMNNLEPEDTAVYYCAAKYSRYAPQSTDYDYWGQGTQVTVSS |  |  |  |  | binds | 0.048 s⁻¹ |  |  |  |  |
| SB127 rabbit IgG hcAb (Fc fusion, not shown: a dimerising Fc or GST, also called family 2) VHH: QVQLVESGGGLVQAGDSLRLSCAASGRIPVTTTTAWFRQAPGKEREFVAAITWNSGNTNYADSAKGRFTISRDSAKNTLYLQMNNLKPEDTAVYYCAAKYSRYNLQSTDYDYWGQGTQVTVSS |  |  |  |  | binds | 0.028 s⁻¹ |  |  |  |  |
| SB129 rabbit IgG hcAb (Fc fusion, not shown: a dimerising Fc or GST, also called family 2) VHH: QVQLVESGGGLVQAGDSLRLSCAASGRTPITTTTGWFRQAPGKEREFVAAIRWNSGDAAYADSAKGRFTISRDSAKNTLYLQMNNLEPEDTAVYYCAAKYSRYAPQSTDYDYWGQGTQVTVSS |  |  |  |  | binds | 0.052 s⁻¹ | 0.05 s⁻¹ |  |  |  |
| SB128 rabbit IgG hcAb (Fc fusion, not shown: a dimerising Fc or GST, also called l- 14b; family 2) VHH: QVQLVESGGGLVQAGDSLRLSCAASGRTPITTTTGWFRQAPGKEREFVAAIRWDSGNTNYADSAKGRFTISRDSAKNLLYLQMTNLKPEDTAVYYCAAKYSRYLPQSTDYDYWGQGTQVTVSS | 86% | 14% | 88% | 42% |  | 0.011 s⁻¹ |  | no binding |  |  |
| SB27 rabbit IgG hcAb (Fc fusion, not shown: a dimerising Fc or GST, also called family 1) VHH: QVQLVESGGGLVQPGGSLRLSCAASGSIFSFNAMGWYRQAPGKQRELVAAITSGGSTNYADSVKGRFTISRDNAKNTVYLQMNSLKPEDTAVYYCNGIGGSTWFGEDEYDYWGQGTQVTVSS |  |  |  |  | binds | 0.0031 s⁻¹ |  |  |  |  |
| SB132 rabbit IgG hcAb (Fc fusion, not shown: a dimerising Fc or GST, also called family 1) VHH: QVQLVESGGGLVQPGGSLRLSCAASGSIFNFNAMGWYRQASGKQRELVAAITSGGSTNYADSVKGRFTISRGNAKNTVYLQMNSLKPEDTAVYYCHGIGGSTWFGEEEYDSWGQGTQVTVSS |  |  |  |  | binds | 0.0011 s⁻¹ |  |  |  |  |
| SB131 rabbit IgG hcAb (Fc fusion, not shown: a dimerising Fc or GST, also called family 1) VHH: QVQLVESGGGLVQPGGSLRLSCAASESIVSFNAMGWYRQAPGKQRDLVAAITSGGRTNYAESVKGRFTISRDDAKNTVYLQMNSLKPEDTAVYYCHAIGGSTWFGEDEPDYWGQGTQVTVSS |  |  |  |  | binds | 0.00084 s⁻¹ |  |  |  |  |
| SB24 rabbit IgG hcAb (Fc fusion, not shown: a dimerising Fc or GST, Bivalent VHH-Fc heavy chain antibody; also called l- 14a; family 1) VHH: QVQLVESGGGLVQPGGSLRLSCAASGSIFSFNAMGWYRQAPGKQRELVAAITSGGNTNYADSVKGRFAISRDNAKNTVYLQMSSLKPEDTAVYYCKGIGGSTWFGEDEPDYWGQGTQVTVSS | 39% | 99% | 40% | 53% |  | 0.00099 s⁻¹ |  | no binding |  |  |
| SB130 rabbit IgG hcAb (Fc fusion, not shown: a dimerising Fc or GST, also called family 1) VHH: QVQLVESGGGSVQPGGSLKLSCAASGSISSINAMGWYRQAPGKQRELVAAITSGGYTNYADSVKGRFTISRDNAKNTVYLQMNSLKPEDTAVYYCNAIGGSTWFGEDEYDNWGQGTQVTVSS |  |  |  |  | binds | 0.0015 s⁻¹ |  |  |  |  |
| SB39 rabbit IgG hcAb (Fc fusion, not shown: a dimerising Fc or GST, also called l- 11; family 7) VHH: QVQLVESGGGLVQPGGSLRLSCAASGFTLDYFAIGWFRQGPGKERDWVSCISKDGTTYYIDSVKGRFTISRDNAKNTGYLQMSGLKPDDTAVYYCARGAGGCQSDFGARGQGTQVTVSS | 98% | 39% | 96% | 91% |  |  |  |  | binds |  |
| SB112 rabbit IgG hcAb (Fc fusion, not shown: a dimerising Fc or GST, also called l- 14c; family 9) VHH: QVQLQESGGGLVQAGGSLRLSCTASGRSFSSNAMGWFRQAPGKEREFVARINWSGSRTFYTDSVKGRFTISRDNAKNTMYLQMNSLKPEDTAVYYCAADPNYGSSITSGYTYWGQGTQVTVSS |  |  |  |  |  |  |  |  | binds | binds |
| SB135 rabbit IgG hcAb (Fc fusion, not shown: a dimerising Fc or GST, also called l- 15; family 4) VHH: QVKLQESGGGLVQAGGSLRLSCTASEESFNKYGVGWFRQAPGKERAFVVAIRPSGVITSYADSVKGRFTISRDSAKNTAYLQMNSLKPEDTALYYCAANSRNTNYYRPNGYDYWGRGTQVTVSS | 46% | 9% | 53% | 37% |  | 0.03 s⁻¹ |  | no binding |  |  |
| SB90 rabbit IgG hcAb (Fc fusion, not shown: a dimerising Fc or GST, also called s+ 17; family 8) VHH: QVQLVESGGGLVQAGGSLRLSCAVSGLNNYAIGWLRQAPGKEREGVSCINCFDDFTYYADSVKGRFTVSCDNANHTVNLEMNSLRPEDTAVYYCAAGTCGSWWRYTPTPADGAWGRGTQVTVSS |  |  |  |  |  |  |  |  | binds | binds |
| SB32 rabbit IgG hcAb (Fc fusion, not shown: a dimerising Fc or GST, also called l- 14d; family 10) VHH: QVQLVESGGGLVQAGGSLRLSCAVSKRTSTHYAMGWFRQAPGLVREFVGVINWNGGTTYYADSVKGRFFISRDNAKNTMALQMNNLKPEDTAVYYCALKVDGLGLTSNEYQHWGQGTQVTVSS |  |  |  |  |  |  |  |  | binds | binds |
| SB134 rabbit IgG hcAb (Fc fusion, not shown: a dimerising Fc or GST, also called l- 5a; family 3) VHH: QVKLQESGGGWVQPGGSLRLSCAASGFTFRTHFMSWVRQAPGQGLEWVSGITSGGRTSYVDSVKGRFTISRDNAANTLYLQMNSLKPEDTAVYFCTKGDSGARGQGTQVTVSS |  | 15% | 58% | 41% |  | 0.012 s⁻¹ |  | no binding |  |  |
| SB137 rabbit IgG hcAb (Fc fusion, not shown: a dimerising Fc or GST, also called s- 17; family 6) VHH: QVKLQESGGGLGQAGGSLRLSCSASARTSATYVMGWFRQAPGKEREFVATISRSTSTTYYGDSVKGRFTISRDNAKNAVYLQMNSLKPEDTAVYYCATRAPRYGTASTRLSDYDNWGQGTQVTVSS | 93% | -11% | 95% | 39% |  |  |  | no binding |  |  |
| SB136 rabbit IgG hcAb (Fc fusion, not shown: a dimerising Fc or GST, also called s- 12; family 5) VHH: DVQLQASGGGLVQPGGSLRLSCAASGFRFSIYDMSWVRRPPGKGLEWVSSITSPGGTTYADSVKGRFTISRDNDKNTLYLQMNSLKPEDTAIYYCAKAYGGRSVVAQTARGQGTQVTVSS | 16% | -11% | 0% | 75% |  | 0.0012 s⁻¹ |  | no binding |  |  |

Source: patent US20240352144A1 (UNIVERSIT TSKLINIKUM HAMBURG EPPENDORF, published 2024)
